# PMC8575500
# Molecular target: C12-AcpP (Escherichia coli acyl carrier protein AcpP, wt, carrying a C12 acyl chain) (Escherichia coli) (UniProt P0A6A8)
# Sequence of UniProt P0A6A8 (P0A6A8 whole entry): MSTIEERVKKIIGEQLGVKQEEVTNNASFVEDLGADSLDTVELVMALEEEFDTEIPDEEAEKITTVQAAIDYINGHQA
row,"completion of the reaction after 10 min, from the remaining C12-AcpP by HPLC [%]",Substance
1,15,Escherichia coli FabF K65A/R68A/K69A (enzyme)
2,65,Escherichia coli FabF K65A/K69A (enzyme)
3,44,Escherichia coli FabF K65A/R127A/K128A (enzyme)
4,39,Escherichia coli FabF R206A (enzyme)
5,13,Escherichia coli FabF R127A/K128A/R206A (enzyme)
